As a reminder, the Kd is the constant that tells how readily two partners part at equilibrium. A word on the koff: it is a measure of how fast the partners let go of each other. A high value points to fast dissociation. As usually defined, the kon is a measure of how fast the partners come together. Low readings indicate slow association, high ones fast association.

Drawing on patent publication US20260043046A1 (ADVERUM BIOTECHNOLOGIES, published 2026), this text covers Kd, koff and kon for two molecules.

Assay [1] concerns the target T1, human complement C3 (Cat: C2910, Sigma) (human, UniProt P01024 23-1663).
T1 construct: Bought protein; Native C3 is a two-chain (beta/alpha) protein processed from one precursor, so it is written here as one natural entry; also called Complement component 3
The experiment in a line: BLI (Octet HTX, 25 °C), human IgG1 in buffer against human complement C3. (In general: BLI is a label-free optical method that tracks binding on a fibre tip over time.)

Assay [2] deals with T1, human complement C3 (Cat: C2910, Sigma). The experiment in a line: BLI (Octet HTX, 25 °C), HEK293 supernatant against human complement C3. As to the method:
Supernatant from suspension HEK293 cells transfected with vector carrying gene encoding anti-C3 antibody (cell culture and transfection methods can be found in previous section) were used for kinetics analysis via Octet (BLI) to measure binding affinity to human complement C3 (Cat: C2910, Sigma). Binding experiments were performed on Octet HTX at 25° C. by LakePharma (Redwood City, CA). There were three test articles including products of pADV1176 (0.015 mg/mL), negative control (supernatant from untransfected cells) and positive control (human IgG1 in buffer—137 mM NaCl, 2.7 mM KCl, 10 mM Na₂HPO₄, 2 mM KH₂PO₄, pH 7.4, 0.98 mg/mL).

T1 sequence (P01024 23-1663 limits assumed): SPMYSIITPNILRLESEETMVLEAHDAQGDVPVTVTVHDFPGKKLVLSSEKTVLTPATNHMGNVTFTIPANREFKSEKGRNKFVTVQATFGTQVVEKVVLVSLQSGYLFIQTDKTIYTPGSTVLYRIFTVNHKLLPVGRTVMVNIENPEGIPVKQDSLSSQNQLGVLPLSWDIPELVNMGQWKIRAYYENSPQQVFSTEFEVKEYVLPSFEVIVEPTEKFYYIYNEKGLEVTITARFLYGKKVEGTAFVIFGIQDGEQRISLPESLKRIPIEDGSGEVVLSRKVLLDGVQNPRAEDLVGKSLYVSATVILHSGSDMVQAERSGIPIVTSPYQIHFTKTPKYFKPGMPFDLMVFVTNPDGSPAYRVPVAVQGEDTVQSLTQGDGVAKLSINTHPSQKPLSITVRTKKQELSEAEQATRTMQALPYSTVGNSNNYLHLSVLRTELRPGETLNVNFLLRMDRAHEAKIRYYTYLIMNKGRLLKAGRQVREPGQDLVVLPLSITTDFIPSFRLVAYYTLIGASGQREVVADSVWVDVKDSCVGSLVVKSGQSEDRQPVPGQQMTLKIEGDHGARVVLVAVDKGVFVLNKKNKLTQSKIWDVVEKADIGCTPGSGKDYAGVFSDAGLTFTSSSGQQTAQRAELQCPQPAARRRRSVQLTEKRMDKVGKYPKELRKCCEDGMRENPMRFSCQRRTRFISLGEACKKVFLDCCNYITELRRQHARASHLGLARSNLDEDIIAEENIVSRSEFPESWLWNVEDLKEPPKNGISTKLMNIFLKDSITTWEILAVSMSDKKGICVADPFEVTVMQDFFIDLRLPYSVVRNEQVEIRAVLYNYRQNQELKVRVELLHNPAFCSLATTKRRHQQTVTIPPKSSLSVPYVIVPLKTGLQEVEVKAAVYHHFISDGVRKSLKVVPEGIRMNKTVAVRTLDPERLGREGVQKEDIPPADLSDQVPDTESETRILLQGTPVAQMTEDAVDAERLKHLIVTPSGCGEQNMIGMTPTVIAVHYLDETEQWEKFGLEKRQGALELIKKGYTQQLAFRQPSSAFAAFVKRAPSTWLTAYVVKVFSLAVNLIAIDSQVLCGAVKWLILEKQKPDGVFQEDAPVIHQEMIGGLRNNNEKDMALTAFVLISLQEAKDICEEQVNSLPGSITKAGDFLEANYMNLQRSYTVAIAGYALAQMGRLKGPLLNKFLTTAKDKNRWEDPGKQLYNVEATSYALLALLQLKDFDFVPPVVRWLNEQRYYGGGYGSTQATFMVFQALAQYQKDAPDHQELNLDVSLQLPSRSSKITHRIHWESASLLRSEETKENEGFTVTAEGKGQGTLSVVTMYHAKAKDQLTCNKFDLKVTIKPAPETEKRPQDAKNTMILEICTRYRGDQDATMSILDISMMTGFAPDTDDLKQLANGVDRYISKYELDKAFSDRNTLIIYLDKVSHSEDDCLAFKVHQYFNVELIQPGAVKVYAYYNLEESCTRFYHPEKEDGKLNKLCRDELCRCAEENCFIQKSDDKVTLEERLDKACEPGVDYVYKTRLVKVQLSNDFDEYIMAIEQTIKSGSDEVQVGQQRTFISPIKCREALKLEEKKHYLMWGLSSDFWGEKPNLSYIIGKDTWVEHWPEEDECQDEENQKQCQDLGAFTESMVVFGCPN

On to “Positive control (human IgG1 in buffer, 0.98 mg/mL) (antibody)”, for which, in assay [1], the Kd is 0.256 nM, the dissociation rate constant (koff) was determined as 4.92e-05 s⁻¹ and the on-rate constant (kon) is 193000 M⁻¹ s⁻¹.

B1: Products of pADV1176 (anti-C3 antibody expressed from plasmid pADV1176 in suspension HEK293 cells) (antibody, human IgG1, kappa, V domains shown)
VH: QVQLVQSGAEVKKPGASVKVSCKASGYTFTDFYMDWVRQAPGQRLEWMGYIYPHNAGTTYNQQFTGRVTITVDKSASTAYMELSSLRSEDTAVYYCARRGGFDFDYWGQGTLVTVSS
VL: DIQMTQSPSSLSASVGDRVTITCKASENVDTYVSWYQQKPGKAPKLLIYGASNRYTGVPSRFSGSGSGTDFTFTISSLQPEDIATYHCGQSHSYPLTFGQGTKLEIKR
notes: Full-length humanized human IgG1, tested as unpurified HEK293 supernatant at 0.015 mg/mL; Two copies of each chain is inferred from 'full-length' IgG1; also called humanized anti-C3 antibody; products of AAV2.7m8-pADV1176
As for B1, in assay [2], the equilibrium dissociation constant (Kd) is 0.13 nM, the koff worked out at 2.67e-05 s⁻¹ and the kon came to 206000 M⁻¹ s⁻¹.
